B1: MGC27345 (parent)
chain: KYMPHLCQDSSGEVSCQCQLHPPR
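Further: lentivirally expressed fusions sorted by FACS into six bins by GFP to DsRed ratio, PSI derived from sequencing read proportions per bin multiplied by bin number.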

Variants of: B1
Test: protein stability index of a GFP-peptide fusion (GPS, HEK-293T) (PSI 1-6); higher = more stable
Settings: c terminus: a fixed tail appended
Work on Q19H yielded a protein stability index of 1.52. Q19L gave a protein stability index of 2.12. Q19S showed a protein stability index of 2.5. Work on Q19M yielded a protein stability index of 2.13. Variant Q19P has a protein stability index of 3.84. For Q19N, the protein stability index was 2.63. Variant Q19Y has a protein stability index of 2.71. Q19V gave a protein stability index of 1.96. Work on Q19T yielded a protein stability index of 2.36. Q19C showed a protein stability index of 2.07. In the case of Q19E, the protein stability index is reported as 3.08. With Q19I the protein stability index was 2.15. Q19K showed a protein stability index of 2.07. With Q19W the protein stability index was 2.48. Q19D gave a protein stability index of 2.25. Q19F showed a protein stability index of 2.71. Q19G gave a protein stability index of 2.81. Work on D9S yielded a protein stability index of 1.82. Work on D9T yielded a protein stability index of 2.14. With D9Y the protein stability index was 1.67. With D9R the protein stability index was 1.89. D9W showed a protein stability index of 1.52. Work on V14K yielded a protein stability index of 2.64. V14L gave a protein stability index of 1.97. Work on V14P yielded a protein stability index of 2.45. Work on V14W yielded a protein stability index of 2.42. V14Y showed a protein stability index of 2.08. Variant V14F has a protein stability index of 1.94. In the case of V14T, the protein stability index is reported as 2.87. V14I showed a protein stability index of 2.48. Work on V14G yielded a protein stability index of 3.14. V14C showed a protein stability index of 2.94. Variant V14N has a protein stability index of 2.46. With V14H the protein stability index was 2.48. For V14S, the protein stability index was 2.88. In the case of V14A, the protein stability index is reported as 3.06. For V14D, the protein stability index was 2.25. Work on V14E yielded a protein stability index of 3.31. With V14Q the protein stability index was 2.67. V14M gave a protein stability index of 2.23. V14R gave a protein stability index of 2.24. For E13K, the protein stability index was 2.21. Variant E13Q has a protein stability index of 1.74. In the case of E13H, the protein stability index is reported as 2.05. Variant E13Y has a protein stability index of 1.54. E13N showed a protein stability index of 1.75. E13W gave a protein stability index of 1.03. Work on E13C yielded a protein stability index of 2.14. Work on E13I yielded a protein stability index of 1.99. Work on E13M yielded a protein stability index of 1.89. With E13R the protein stability index was 2.44. E13T gave a protein stability index of 2.22. For E13F, the protein stability index was 1.71. E13D gave a protein stability index of 2.57. E13L showed a protein stability index of 2.07. With E13P the protein stability index was 2.31. Work on E13A yielded a protein stability index of 2.3. For E13V, the protein stability index was 1.78. E13S gave a protein stability index of 2.26. P23E gave a protein stability index of 3.48. P23K showed a protein stability index of 2.35. P23V gave a protein stability index of 2.87. In the case of P23H, the protein stability index is reported as 2.66. Work on P23W yielded a protein stability index of 2.34. In the case of P23D, the protein stability index is reported as 3.71. P23A gave a protein stability index of 2.34. In the case of P23N, the protein stability index is reported as 2.85. Work on P23Q yielded a protein stability index of 2.29. For P23I, the protein stability index was 2.24. P23S showed a protein stability index of 2.47. P23F gave a protein stability index of 2.32. For P23M, the protein stability index was 2.2. For P23T, the protein stability index was 2.02. Work on P23L yielded a protein stability index of 2.38. Work on P23Y yielded a protein stability index of 2.07. In the case of P23C, the protein stability index is reported as 3.96. P23G showed a protein stability index of 3.38. For P22D, the protein stability index was 4.1. For P22H, the protein stability index was 3.14. For P22Q, the protein stability index was 2.64. With P22M the protein stability index was 2.51. P22G showed a protein stability index of 3.29. With P22E the protein stability index was 3.09. P22K showed a protein stability index of 2.43. With P22A the protein stability index was 2.66. In the case of P22Y, the protein stability index is reported as 2.45. P22R gave a protein stability index of 2.62. In the case of P22F, the protein stability index is reported as 2.41. For P22S, the protein stability index was 2.55. Variant P22V has a protein stability index of 2.17. P22L showed a protein stability index of 2.73. With P22C the protein stability index was 2.47. Work on P22W yielded a protein stability index of 2.05. P22I showed a protein stability index of 2.03. For P22T, the protein stability index was 2.49. Variant P22N has a protein stability index of 3.16. Work on C18V yielded a protein stability index of 3.48. C18M gave a protein stability index of 2.54. For C18L, the protein stability index was 3.35. In the case of C18T, the protein stability index is reported as 3.35. Work on C18R yielded a protein stability index of 3. C18F gave a protein stability index of 1.93. C18S showed a protein stability index of 3.79. Variant C18H has a protein stability index of 2.94. C18Q showed a protein stability index of 3.6. In the case of C18P, the protein stability index is reported as 3.55. In the case of C18A, the protein stability index is reported as 3.46. For C18Y, the protein stability index was 1.69. For C18I, the protein stability index was 3.34. Variant C18K has a protein stability index of 3.44. Work on C18N yielded a protein stability index of 4.32. C18E showed a protein stability index of 3.62. C18D showed a protein stability index of 3.65. For C18W, the protein stability index was 2.44. For R24H, the protein stability index was 4.04. R24Q showed a protein stability index of 4.05. With R24K the protein stability index was 3.26. With R24M the protein stability index was 3.31. With R24N the protein stability index was 4.28. R24T gave a protein stability index of 3.99. In the case of R24Y, the protein stability index is reported as 3.87. R24I showed a protein stability index of 3.75. With R24F the protein stability index was 3.39. Work on R24A yielded a protein stability index of 3.79. For R24E, the protein stability index was 4.59. With R24L the protein stability index was 3.85. In the case of R24C, the protein stability index is reported as 3.86. Work on R24S yielded a protein stability index of 4.29. Variant R24W has a protein stability index of 2.89. Variant R24V has a protein stability index of 3.23. With R24D the protein stability index was 4.59. For R24G, the protein stability index was 4.32. For S15R, the protein stability index was 1.63. Work on S15C yielded a protein stability index of 2.28. S15G showed a protein stability index of 2.14. With S15Y the protein stability index was 2.22. Work on S15T yielded a protein stability index of 1.41. In the case of S15W, the protein stability index is reported as 1.02. In the case of S15N, the protein stability index is reported as 2.62. With S15D the protein stability index was 3.99. Variant S15K has a protein stability index of 2.8. Work on S15H yielded a protein stability index of 1.64. For S15F, the protein stability index was 1.67. With S15L the protein stability index was 1.72. In the case of S15V, the protein stability index is reported as 2.48. S15P gave a protein stability index of 2.67. S15Q showed a protein stability index of 1.96. S15E gave a protein stability index of 3.32. S15I showed a protein stability index of 1.63. With Q17D the protein stability index was 2.83. In the case of Q17P, the protein stability index is reported as 2.21. Work on Q17I yielded a protein stability index of 1.76. Q17G gave a protein stability index of 1.62. Q17R gave a protein stability index of 2.35. For Q17K, the protein stability index was 3.52. Q17L gave a protein stability index of 2.17. Q17V showed a protein stability index of 2.44. Q17F gave a protein stability index of 2.21. For Q17Y, the protein stability index was 1.76. Q17T gave a protein stability index of 1.81. Q17M showed a protein stability index of 3.13. With Q17C the protein stability index was 2.32. In the case of Q17S, the protein stability index is reported as 1.33. Q17H showed a protein stability index of 1.74. Q17N gave a protein stability index of 1.47. With Q17A the protein stability index was 1.66. For Q17W, the protein stability index was 2.6.
